This is an account of results in patent US20180222987A1 (Sanofi, published 2018).

Assay [1] has as its target T1, human CD3ε/δ-Fc fusion heterodimer (hCD3ε/δ-hFc) (human, UniProt P04234 22-105).
T1 construct: also called CD3ed-Fc; human CD3ε/δ complex; not shown: hinge-CH2-CH3 of human IgG with tag
The experiment in a line: SPR single point, hybridoma supernatant. The protocol: Rats with positive sera were scarified and B cells were fused with mouse myeloma cells. The resulting hybridomas were screened on HEK293 cells transfected with human or cynomolgus CD3ε and CD3δ expression plasmids, on Jurkat E6.1 (CD3+) and Jurkat T3.5 (CD3-) by flow cytometry. Supernatant of Hybridoma clones was used to assess by surface plasmon resonance single point kinetic against human and Macaca fascicularis CD3ε/δ complex by fixing the analyte at 25 nM (data presented in table 3).

The target in assay [2] is T2, human CD123 (IL3RA) Strep-II tagged Fc-fusion protein (human).
T2 construct: also called human CD123-Fc
The experiment in a line: SPR Proteon XPR36, rat IgG captured, CD123-Fc analyte. On the procedure: Screening of anti-CD123 rat IgGs for binding affinities to human CD123 and cross-reactivities to cyno CD123 was performed with hybridoma supernatants using a Proteon XPR36 (Biorad) in a one-shot kinetics approach. A capture assay was established using a goat anti-rat IgG (112-005-071, Jackson Immuno Research). The capture antibody was coated on GLC chips (176-5011, Biorad) to approx. 8000 RU in the vertical direction using the amine coupling kit (176-2410, Biorad). […] Binding kinetics with human and cyno CD123-Fc fusion protein was measured at 100 μl/min in the horizontal direction with 120 sec. and 600 sec. for association and dissociation, respectively. The CD123-Fc proteins were used in twofold dilutions from 6 nM to 100 nM. PBSET buffer (176-2730, Biorad) was used as assay buffer. Regeneration was achieved by injection of 10 mM Glycine buffer pH 1.5 for 18 sec at 30 μl/min. Data processing and analysis was performed using ProteonManager software v3.0. Fitting of the sensorgrams was done with a 1:1 Langmuir model.

T1 sequence (chain, as listed by the source mutant, chain 1 of 2): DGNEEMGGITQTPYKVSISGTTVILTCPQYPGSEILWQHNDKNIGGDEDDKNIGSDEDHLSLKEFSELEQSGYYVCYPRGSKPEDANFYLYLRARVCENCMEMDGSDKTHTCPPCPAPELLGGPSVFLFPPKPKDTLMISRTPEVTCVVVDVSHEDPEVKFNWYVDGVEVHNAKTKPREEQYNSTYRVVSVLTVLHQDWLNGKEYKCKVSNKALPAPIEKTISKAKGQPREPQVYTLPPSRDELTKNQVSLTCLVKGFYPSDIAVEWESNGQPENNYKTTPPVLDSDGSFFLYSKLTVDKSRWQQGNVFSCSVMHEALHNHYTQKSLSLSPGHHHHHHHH
T1 sequence (P04234 22-105, stated change not applied, chain 2 of 2): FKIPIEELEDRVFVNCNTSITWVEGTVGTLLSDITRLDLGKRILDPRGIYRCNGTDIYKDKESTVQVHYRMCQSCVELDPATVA
T2 sequence (chain, as listed by the source limits assumed): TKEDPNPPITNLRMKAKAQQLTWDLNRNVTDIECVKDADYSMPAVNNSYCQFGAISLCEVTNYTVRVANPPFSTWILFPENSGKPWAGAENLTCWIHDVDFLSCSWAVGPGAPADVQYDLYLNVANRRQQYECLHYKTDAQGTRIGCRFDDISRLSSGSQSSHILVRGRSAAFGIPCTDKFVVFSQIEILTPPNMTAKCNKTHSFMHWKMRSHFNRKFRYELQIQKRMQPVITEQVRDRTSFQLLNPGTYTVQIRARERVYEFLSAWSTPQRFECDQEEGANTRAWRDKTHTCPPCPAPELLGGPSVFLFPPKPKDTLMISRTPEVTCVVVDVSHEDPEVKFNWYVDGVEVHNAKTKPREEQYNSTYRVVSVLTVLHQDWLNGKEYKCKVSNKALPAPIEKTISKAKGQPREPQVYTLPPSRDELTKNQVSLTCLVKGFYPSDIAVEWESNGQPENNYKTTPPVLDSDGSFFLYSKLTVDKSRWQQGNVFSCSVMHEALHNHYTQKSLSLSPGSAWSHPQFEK

B1: 11H3-E5 anti-CD3 antibody (antibody, V domains shown)
VH: EVQLVETGGSLVQPGKSLKLTCATSGFTFSNAWMHWVRQSPEKQLEWVAQIKAKSNNYATYYAESVKGRFTISRDDSKSSVYLQMNSLKEEDTAIYYCRGTYYAYKPFDYWGQGVMVTVSS
VL: DVVMTQTPVSLSVSLGGQVSISCRSSQSLVHDNGNTYLSWSLQKPGQSPQVLIYKVSNRFSGTSDRFTGSGSGTDFTLKISRVEPDDLGVYYCGQGTQYPFTFGSGTKLEIK
notes: rat mAb, hybridoma supernatant
For the molecule B1, the “RU at 25 nM” value in assay [1] turned out to be 7 RU.

B2: 3B10-E6 anti-CD123 antibody (antibody, V domains shown)
VH: QVQLQQSGPELRRPGSSVRLSCKASGYRIKDFLIHWIKNRPEHGLEWIGWIDPEDGETKYAQKFQTKATLTADTSSNTAYMQLSSLTSEDTATYFCARWGDVYYGLMRGHVMDAWGQGTSVTVSS
VL: DVLMTQTPVSLPVSLGGQVSISCRSSQSLVHSDGDTYLHWYLQKPGQSPQLLIYRVSNRFSGVPDRFSGSGSGTDFTLKISRVEPEDLGLYYCLQTTHFPPWTFGGGTKLEMK
notes: rat IgG, hybridoma supernatant; also called BFX - 3B10
What is called koff is a measure of how fast the partners let go of each other. In the case of B2, in assay [2], the koff is ~5e-05 s⁻¹.
